In patent publication US20120172298A1, “GLP-1 AND FGF21 COMBINATIONS FOR TREATMENT OF DIABETES TYPE 2” (Novo Nordisk A/S, priority 2009, published 2012):
Where “and” joins values, the source holds several entries; their conditions need not be identical. Identical values can stand only once.

Tested on: pancreatic islets from diabetic db/db mice
Assay: Restoration of glucose stimulated insulin release ex vivo (islet perifusion)
Assay type: cell-based
Design: AUC for time 35-75 minutes (glucose response), single repetitions / AUC for time 75-140 minutes (forskolin response), single repetitions: unit not given here
Details: for insulin release: mean +/- SEM
Description: This ex vivo example investigates the ability of pancreatic islets from diabetic db/db mice to restore, in response to treatment with FGF21 and GLP-1 compounds, the ability to release insulin in response to glucose stimulation.
Islets from 25 db/db mice (Charles River), 15 weeks of age, were isolated according to the following procedure:
Animals were killed by cervical dislocation and fixated with pins on a Styrofoam plate. Pancreata were removed and transferred to a Packard vial containing 5 ml collagenase (Life Science, grade II, cat. no. 100502) 300 units/ml (one pancreas/vial) which was kept on ice until all pancreata were removed. Then the pancreata were shaken in the Grant/Edmund S25 thermoshaker at 200 strokes/min. at 37° C. for 5 min. The tissue was transferred to a fresh vial containing 5 ml 150 units/ml collagenase (supernatant was discarded) and shaken again in the thermoshaker for 5 min. The tissue was further shaken 3-5 min. on the thermoshaker, and thereafter all shaking is done by hand for 5-10 sec. each time. These steps were repeated until all tissue was digested. The process was followed continuously under the stereomicroscope and once digested the tissue was pooled and collected in progressively fewer tubes. All supernatants were washed 3 times in HBSS+0.5% NCS (HBSS (10×) from Gibco, cat. no. 14060, is diluted 10× in H2O before use, Newborn Calf Serum (NCS) from Gibco, cat. no. 26010-066), allowed to sediment for 5 min. between each wash, and left on ice, following which the islets were ready for picking. Islets were purified by transferring a little bit of supernatant to a Petri dish, filling up with HBSS+NCS and subsequently transferring (by mouth pipetting) with a constriction pipette to a new Petri dish. From there the islet were re-picked until pure, and then incubated in RPMI 1640 medium (Gibco, cat no 61870-010)+10% NCS at 37° C.
After incubation, the islets were washed in Krebs Ringer solution (115 mM NaCl, 4.7 mM KCl, 2.6 mM CaCl2, 1.2 mM KH2PO4, 1.2 mM MgSO4, 10 mM HEPES, 0.2% BSA, 2 mM glutamine, 5 mM NaHCO3, pH 7.4) and subsequently used in an islet perifusion experiment (Suprafusion 2500 from Brandel). For each of the three preincubation conditions four perifusion columns each with 60 islets were used. The islets were placed in Bio-gel P2 (Bio-Rad. cat. no. 150-4114) in the columns with a nylon mesh below and above the gel. The islets were initially perifused for 40 minutes with Krebs Ringer solution containing 3 mM glucose to obtain a stable baseline of insulin release. After 40 minutes the buffer was exchanged to 15 mM glucose for 30 minutes (time 40-70 min). Then the buffer was exchanged to 15 mM glucose containing 10 μM forskolin (Tocris 1099, batch 3A/86008) for 40 minutes (time 70-110 min). Finally the buffer was exchanged to low glucose (3 mM) for 30 minutes (time 110-140 min). The buffer was set to flow through the perifusion system at a rate of 0.3 ml/minute. Samples were taken every 5 minutes from time 30 to 140 min. Samples were stored at −20° C. and subsequently analysed for insulin, essentially as described by Poulsen et al. in Journal of Biomolecular Screening 12(X); p. 1-8, 2007 (LOCI (Luminescent Oxygen Channeling Immunoassay) sandwich immunoassay).
The results (ng/ml insulin) are shown in Table 1 below as mean+/−standard error of mean (SEM). The figures for the control and the FGF21 compound are based on three repetitions (due to problems with one of the four columns in these two experiments), while the figures for the GLP-1 compound are based on four repetitions.
The corresponding Area Under the Curve (designated AUC) figures were also calculated, and for the statistics the Student's T-test was used.

[1] = insulin AUC per perifusion column, FGF21 = 50 nM Compound F1, GLP-1 = 100 nM Compound G3

B1: Met-FGF21_human (protein, listed as Homo sapiens)
chain: HPIPDSSPLLQFGGQVRQRYLYTDDAQQTEAHLEIREDGTVGGAADQSPESLLQLKALKPGVIQILGVKTSRFLCQRPDGALYGSLHFDPEACSFRELLLEDGYNVYQSEAHGLPLHLPGNKSPHRDPAPRGPARFLPLPGLPPALPEPPGILAPQPPDVGSSDPLSMVGPSQGRSPSYAS
modifications: N-terminal Met; mat_peptide (1)..(181); DISULFID (75)..(93)
In the case of B1, the “restoration of glucose stimulated insulin release ex vivo” value (db/db mice pancreatic islets, Table 2 results, F1 50 nM, G3 100 nM) is reported as “capable of restoring glucose stimulated insulin release”, the “AUC for time 35-75 minutes (glucose response), single repetitions” value [1] is reported as 521.2 and 514.5 and 359.9 and the “AUC for time 75-140 minutes (forskolin response), single repetitions” value [1] is reported as 5402 and 4177 and 5832. For the same molecule, the “AUC for time 75-140 minutes (forskolin response), mean” value (insulin AUC, FGF21 = 50 nM Compound F1, GLP-1 = 100 nM Compound G3, * FGF21 vs GLP-1) was “(mean 5137*)”, the “AUC for time 35-75 minutes (glucose response), mean” value (insulin AUC, FGF21 = 50 nM Compound F1, GLP-1 = 100 nM Compound G3, ** vs control) was “(mean 465.2**)” and the insulin release (time 35 min, 3 mM glucose, islets preincubated 48 h with 50 nM Compound F1 or 100 nM Compound G3) was 0.92 ± 0.10 ng/mL. The insulin release (time 40 min, 3 mM glucose, preincubation 48 h 50 nM F1 or 100 nM G3) was 0.71 ± 0.06 ng/mL, the insulin release (time 45 min, 15 mM glucose, preincubation 48 h 50 nM F1 or 100 nM G3) was 0.68 ± 0.04 ng/mL and the insulin release (time 50 min, 15 mM glucose, preincubation 48 h 50 nM F1 or 100 nM G3) was 19.56 ± 6.74 ng/mL. It also gave an insulin release (time 55 min, 15 mM glucose, preincubation 48 h 50 nM F1 or 100 nM G3) of 28.33 ± 2.09 ng/mL, an insulin release (time 60 min, 15 mM glucose, preincubation 48 h 50 nM F1 or 100 nM G3) of 12.07 ± 0.50 ng/mL and an insulin release (time 65 min, 15 mM glucose, preincubation 48 h 50 nM F1 or 100 nM G3) of 11.13 ± 0.66 ng/mL. For the same molecule, the insulin release (time 70 min, 15 mM glucose, preincubation 48 h 50 nM F1 or 100 nM G3) was 13.37 ± 0.63 ng/mL, the insulin release (time 75 min, 15 mM glucose + 10 μM forskolin, preincubation 48 h 50 nM F1 or 100 nM G3) was 13.47 ± 0.78 ng/mL and the insulin release (time 80 min, 15 mM glucose + 10 μM forskolin, preincubation 48 h 50 nM F1 or 100 nM G3) was 77.17 ± 14.84 ng/mL. The insulin release (time 85 min, 15 mM glucose + 10 μM forskolin, preincubation 48 h 50 nM F1 or 100 nM G3) was 160.00 ± 16.52 ng/mL, the insulin release (time 90 min, 15 mM glucose + 10 μM forskolin, preincubation 48 h 50 nM F1 or 100 nM G3) was 154.00 ± 15.00 ng/mL and the insulin release (time 95 min, 15 mM glucose + 10 μM forskolin, preincubation 48 h 50 nM F1 or 100 nM G3) was 148.33 ± 17.95 ng/mL. For the same molecule, the insulin release (time 100 min, 15 mM glucose + 10 μM forskolin, preincubation 48 h 50 nM F1 or 100 nM G3) was 125.00 ± 17.35 ng/mL, the insulin release (time 105 min, 15 mM glucose + 10 μM forskolin, preincubation 48 h 50 nM F1 or 100 nM G3) was 99.40 ± 11.84 ng/mL and the insulin release (time 110 min, 15 mM glucose + 10 μM forskolin, preincubation 48 h 50 nM F1 or 100 nM G3) was 79.97 ± 8.43 ng/mL. For the same molecule, the insulin release (time 115 min, low glucose (3 mM), preincubation 48 h 50 nM F1 or 100 nM G3) was 69.63 ± 9.61 ng/mL, the insulin release (time 120 min, low glucose (3 mM), preincubation 48 h 50 nM F1 or 100 nM G3) was 56.23 ± 8.37 ng/mL and the insulin release (time 125 min, low glucose (3 mM), preincubation 48 h 50 nM F1 or 100 nM G3) was 30.03 ± 6.67 ng/mL. It also gave an insulin release (time 130 min, low glucose (3 mM), preincubation 48 h 50 nM F1 or 100 nM G3) of 13.16 ± 3.21 ng/mL, an insulin release (time 135 min, low glucose (3 mM), preincubation 48 h 50 nM F1 or 100 nM G3) of 5.76 ± 0.70 ng/mL and an insulin release (time 140 min, low glucose (3 mM), preincubation 48 h 50 nM F1 or 100 nM G3) of 3.92 ± 0.37 ng/mL.
